Reference: publication PMC7272391
Several values for one entry are separate records, joined by “and”; a condition that tells them apart may be missing. Equal entries are not always repeated.

What was measured:
[1] = molecular target: human Fc-gamma receptor I (human) (UniProt P12314); assay: SPR; BIAcore chip with immobilised anti-His antibody capturing His-tagged human FcγRI; antibody diluted >5000-fold in assay buffer and injected at 0.125-4.0 μg/mL; 1:1 Langmuir binding model
[2] = molecular target: human Fc-gamma receptor IIb (human) (UniProt P31994); assay: SPR; BIAcore chip with immobilised anti-His antibody capturing His-tagged human FcγRIIa, IIb, IIIa(F), IIIa(V), IIIbNA1 or IIIbNA2; antibody exchanged into assay buffer and injected at 0.125-4.0 mg/mL; steady state affinity model
UniProt P31994, sequence (P31994 43-310): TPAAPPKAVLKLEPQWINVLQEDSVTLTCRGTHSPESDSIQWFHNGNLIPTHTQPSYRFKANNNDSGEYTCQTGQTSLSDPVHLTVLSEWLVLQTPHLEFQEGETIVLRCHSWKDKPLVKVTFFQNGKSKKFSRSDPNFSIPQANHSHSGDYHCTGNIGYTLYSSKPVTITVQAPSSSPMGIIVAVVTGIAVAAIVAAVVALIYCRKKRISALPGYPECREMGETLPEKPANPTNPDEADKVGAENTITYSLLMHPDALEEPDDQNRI

[3] = molecular target: human Fc-gamma receptor IIa (human) (UniProt P12318); assay: as above
UniProt P12318, sequence (P12318 34-317): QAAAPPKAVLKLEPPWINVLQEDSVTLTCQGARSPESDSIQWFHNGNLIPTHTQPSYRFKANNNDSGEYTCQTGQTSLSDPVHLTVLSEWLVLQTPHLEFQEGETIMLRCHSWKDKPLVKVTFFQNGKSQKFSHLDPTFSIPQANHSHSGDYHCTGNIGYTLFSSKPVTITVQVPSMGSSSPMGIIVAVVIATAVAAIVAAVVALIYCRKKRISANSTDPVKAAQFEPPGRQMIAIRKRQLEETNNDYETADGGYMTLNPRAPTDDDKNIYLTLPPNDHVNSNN

[4] = molecular target: human Fc-gamma receptor IIIa(F) (human) (UniProt P08637); assay: as above
UniProt P08637, sequence (P08637 17-254): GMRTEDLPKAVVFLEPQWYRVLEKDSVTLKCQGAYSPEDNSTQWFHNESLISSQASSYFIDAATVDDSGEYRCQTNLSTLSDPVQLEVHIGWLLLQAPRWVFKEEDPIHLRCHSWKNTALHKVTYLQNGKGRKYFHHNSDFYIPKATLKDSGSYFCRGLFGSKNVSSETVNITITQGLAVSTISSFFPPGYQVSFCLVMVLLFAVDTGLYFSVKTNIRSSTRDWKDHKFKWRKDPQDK

[5] = molecular target: human neonatal Fc receptor (human) (UniProt P55899); assay: SPR; BIAcore chip with immobilised anti-β2-microglobulin antibody capturing human FcRn; antibody diluted >5000-fold in assay buffer and injected at 0.15625-2.5 μg/mL; bivalent analyte model

UniProt P12314, sequence (P12314 16-374): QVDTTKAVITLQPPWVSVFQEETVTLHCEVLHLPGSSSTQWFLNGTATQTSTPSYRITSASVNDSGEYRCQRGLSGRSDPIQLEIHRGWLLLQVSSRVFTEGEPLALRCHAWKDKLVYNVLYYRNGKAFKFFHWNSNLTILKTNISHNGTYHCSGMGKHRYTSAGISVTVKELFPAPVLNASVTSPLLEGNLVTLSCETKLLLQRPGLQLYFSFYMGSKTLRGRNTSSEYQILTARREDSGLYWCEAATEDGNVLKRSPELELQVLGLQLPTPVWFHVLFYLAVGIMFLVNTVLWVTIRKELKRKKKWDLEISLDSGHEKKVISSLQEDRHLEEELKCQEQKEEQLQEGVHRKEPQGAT

Kd [1]: 0.382 nM and 0.436 nM | Kd [2]: 13800 nM and 15700 nM | Kd [3]: 7650 nM and 8470 nM | Kd [4]: 1000 nM | Kd [5]: 66.4 nM and 75.9 nM
Substance: FKB327 (antibody)
